Test results published in paper PMC7612745 (Nature, 2019).
Where no end group is shown, it is not given here.

Tests used:
[1] = target: T1, Thermus thermophilus multidrug resistance proteins A and B (TmrAB), wild type heterodimer (Thermus thermophilus, UniProt Q72J05;Q72J04); test: fluorescence polarisation
T1 sequence 1: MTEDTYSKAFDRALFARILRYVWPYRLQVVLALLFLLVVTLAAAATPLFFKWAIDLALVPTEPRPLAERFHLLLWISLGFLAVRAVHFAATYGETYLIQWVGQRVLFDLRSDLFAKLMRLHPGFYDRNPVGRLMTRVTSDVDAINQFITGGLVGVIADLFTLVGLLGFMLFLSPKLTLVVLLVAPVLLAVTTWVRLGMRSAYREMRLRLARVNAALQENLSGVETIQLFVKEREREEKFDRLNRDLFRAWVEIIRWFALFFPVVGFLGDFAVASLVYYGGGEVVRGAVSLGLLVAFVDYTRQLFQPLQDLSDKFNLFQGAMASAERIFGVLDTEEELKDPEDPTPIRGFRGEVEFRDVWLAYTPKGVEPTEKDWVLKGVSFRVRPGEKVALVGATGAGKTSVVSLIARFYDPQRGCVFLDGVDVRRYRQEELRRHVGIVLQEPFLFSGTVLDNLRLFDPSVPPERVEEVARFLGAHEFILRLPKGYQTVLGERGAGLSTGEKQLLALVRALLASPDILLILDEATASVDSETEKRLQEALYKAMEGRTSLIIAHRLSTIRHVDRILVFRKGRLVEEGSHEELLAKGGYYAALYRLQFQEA
T1 sequence 2: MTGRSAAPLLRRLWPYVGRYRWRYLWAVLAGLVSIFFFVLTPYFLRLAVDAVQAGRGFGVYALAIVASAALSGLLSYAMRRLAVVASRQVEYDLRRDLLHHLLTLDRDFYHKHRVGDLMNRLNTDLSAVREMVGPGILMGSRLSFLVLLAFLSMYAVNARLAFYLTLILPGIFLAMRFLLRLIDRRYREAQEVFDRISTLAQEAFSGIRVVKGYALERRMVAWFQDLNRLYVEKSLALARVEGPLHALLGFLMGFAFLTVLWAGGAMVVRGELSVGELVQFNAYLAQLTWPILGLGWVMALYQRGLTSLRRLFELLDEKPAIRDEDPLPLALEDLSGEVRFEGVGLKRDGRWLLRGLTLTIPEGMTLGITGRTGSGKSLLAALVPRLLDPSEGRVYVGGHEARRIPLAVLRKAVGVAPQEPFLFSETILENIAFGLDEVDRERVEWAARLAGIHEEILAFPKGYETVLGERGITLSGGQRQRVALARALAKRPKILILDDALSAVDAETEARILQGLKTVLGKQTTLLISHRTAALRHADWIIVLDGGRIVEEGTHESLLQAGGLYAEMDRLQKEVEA

[2] = target: isolated nucleotide-binding domain of TmrB (NBD of TmrB) (Thermus thermophilus HB27, UniProt Q72J04); test: SEC

Q: Does RRYC(fluorescein)KSTEL [fluorescent peptide RRY(C^Fluorescein)KSTEL (C4F)] bind [1]?
A: binds

B1: Nb9F10, TmrAB-specific nanobody (alpaca) (VHH)
VHH: QLQLVESGGGLVQPGDSLRLSCAVSGSALDYNAIGWFRQAPGKEREGVACISKITGNTAYADSVKGRFTISRDNAKNTVHLQMNSLKPEDTAVYYCATVTAVLLPGRCVPGKYWGQGTPVTVSS
Q: Does B1 bind [2]?
A: binds
